Assay results: paper PMC3413214, “Structural and biochemical characterization of a trapped coenzyme A adduct of Caenorhabditis elegans glucosamine-6-phosphate N-acetyltransferase 1” (Acta Crystallographica Section D: Biological Crystallography, 2012)

B1: CeGNA1 (Caenorhabditis elegans) (protein)
chain: MSHIFDASVLAPHIPSNLPDNFKVRPLAKDDFSKGYVDLLSQLTSVGNLDQEAFEKRFEAMRTSVPNYHIVVIEDSNSQKVVASASLVVEMKFIHGAGSRGRVEDVVVDTEMRRQKLGAVLLKTLVSLGKSLGVYKISLECVPELLPFYSQFGFQDDCNFMTQRF
notes: full-length, 165 residues; GST fusion from pGEX-6P-1 in E. coli BL21(DE3) pLysS, GST cut with PreScission protease; homodimer; 18 876 Da by MALDI
B2: CeGNA1 (Caenorhabditis elegans; C141S) (protein)
chain: MSHIFDASVLAPHIPSNLPDNFKVRPLAKDDFSKGYVDLLSQLTSVGNLDQEAFEKRFEAMRTSVPNYHIVVIEDSNSQKVVASASLVVEMKFIHGAGSRGRVEDVVVDTEMRRQKLGAVLLKTLVSLGKSLGVYKISLESVPELLPFYSQFGFQDDCNFMTQRF
notes: as for B1

Substrate: CC(=O)SCCNC(=O)CCNC(=O)[C@H](O)C(C)(C)COP(=O)(O)OP(=O)(O)OC[C@H]1O[C@@H](n2cnc3c(N)ncnc32)[C@H](O)[C@@H]1OP(=O)(O)O
Assay: purified protein
Type: biochemical, Caenorhabditis elegans
Conditions: GlcN-6P constant, 25 mM Tris-HCl pH 7.5, 250 mM NaCl, 2 mM EDTA, 5% glycerol, 293 K, 20.0 °C

Protein | Km (3 nM enzyme) [µM] | kcat (3 nM enzyme) [s⁻¹] | kcat/Km (3 nM enzyme) [M⁻¹ s⁻¹] | Km (10 nM enzyme) [µM] | kcat (10 nM enzyme) [s⁻¹] | kcat/Km (10 nM enzyme) [M⁻¹ s⁻¹]
B1 | 192 ± 16 | 252 | 1.3e+06 | – | – | –
B2 | – | – | – | 261 ± 33 | 48 | 200000
